Laboratory results: paper PMC13161223, “Molecular anatomy of PLK1 master docking motifs” (Nature Communications, 2026)
Non-standard residues stand in square brackets, D forms with d. No end group written: not given here. pT = C[C@@H](OP(=O)(O)O)[C@H](N)C(=O)O; MBP = maltose-binding protein

Legend:
[1] = target: Biotin-conjugated ^MBPPBD (immobilised ligand of BLI) (human) (UniProt P53350); assay: BLI; biotin-conjugated ^MBPPBD immobilised on streptavidin sensors, CENP-U variants as analyte; 25 °C, 20 mM HEPES pH 7.5, 2.5% glycerol, 300 mM NaCl, 0.1 mM TCEP, 0.3 g/L BSA, 0.05% Tween20; KD from koff/kon of the global fit
[2] = target: singly phosphorylated pT98 peptide of CENP-U (ITC) (human); assay: ITC; phosphorylated CENP-U construct in the cell, ^MBPPBD in the syringe; 25 °C, 20 mM Hepes pH 7.5, 300 mM NaCl, 1 mM TCEP, 1% glycerol; one set of sites model
[3] = target: T1, Biotin-conjugated ^MBPPBD (immobilised ligand of BLI) (human, UniProt P53350 345-603, biotin (Gly-Gly-Gly-Gly-Biotin conjugated to the C-terminal PLPETG peptide by sortase A)); assay: BLI; biotin-conjugated ^MBPPBD immobilised on streptavidin sensors, CENP-U variants as analyte; 25 °C, 20 mM HEPES pH 7.5, 2.5% glycerol, 300 mM NaCl, 0.1 mM TCEP, 0.3 g/L BSA, 0.05% Tween20; KD from koff/kon of the global fit; details: both partners purified
T1 construct: PLK1, human, residues 345-603 (Polo-box domain construct); As m1 with a C-terminal PLPETG peptide used for biotin labelling; held on streptavidin sensors; also called immobilized PBD; source: E. coli BL21 (DE3), purified (HisTALON, SEC), biotin-labelled with sortase A; not shown: MBP, N-terminal, kept; PLPETG peptide conjugated with Gly-Gly-Gly-Gly-Biotin, C-terminal, kept

[4] = target: T2, ^MBPPBD (6xHis-MBP-TEV-PLK1^345-603) (human, UniProt P53350 345-603); assay: SEC; analytical SEC, Superdex 200 5/150, 20 mM Bis-tris/HCl pH 6.5, 250 mM NaCl, 5% glycerol, 1 mM TCEP, 4 °C; PBD added 2:1 to the CENP-U variant (10 µM ^MBPPBD and 5 µM ^MBPCENP-U^58-114 in Fig. 1C); details: both partners purified
T2 construct: PLK1, human, residues 345-603 (Polo-box domain construct); The plasmids paragraph speaks of expression in insect cells, the purification paragraph of E. coli BL21 (DE3); TEV site between MBP and PLK1; source: E. coli BL21 (DE3), purified (HisTALON, SEC); not shown: MBP, N-terminal, kept

[5] = target: T3, ^6HisPLK1^FL (6xHis-TEV-PLK1, full length) (human, UniProt P53350 1-603); assay: BLI; biotin-conjugated phosphorylated ^MBPCENP-U^58-114 immobilised on streptavidin sensors, ^MBPPBD or ^6HisPLK1^FL as analyte; 25 °C, 20 mM HEPES pH 7.5, 2.5% glycerol, 300 mM NaCl, 0.1 mM TCEP, 0.3 g/L BSA, 0.05% Tween20; one site for pT78, two sites (KD1, KD2) for pT98 and pT78/pT98; details: both partners purified
T3 construct: PLK1, human, 603 residues, full length; also called full length PLK1; source: insect cells (plasmid from a previous study), purified (HisTALON, SEC); not shown: 6xHis, N-terminal, kept

[6] = target: T2, ^MBPPBD (6xHis-MBP-TEV-PLK1^345-603); assay: as above; details: both partners purified
[7] = target: T2, ^MBPPBD (6xHis-MBP-TEV-PLK1^345-603); assay: ITC; phosphorylated CENP-U construct in the cell, ^MBPPBD in the syringe; 25 °C, 20 mM Hepes pH 7.5, 300 mM NaCl, 1 mM TCEP, 1% glycerol; one set of sites model; details: both partners purified

T3 sequence (P53350 whole entry): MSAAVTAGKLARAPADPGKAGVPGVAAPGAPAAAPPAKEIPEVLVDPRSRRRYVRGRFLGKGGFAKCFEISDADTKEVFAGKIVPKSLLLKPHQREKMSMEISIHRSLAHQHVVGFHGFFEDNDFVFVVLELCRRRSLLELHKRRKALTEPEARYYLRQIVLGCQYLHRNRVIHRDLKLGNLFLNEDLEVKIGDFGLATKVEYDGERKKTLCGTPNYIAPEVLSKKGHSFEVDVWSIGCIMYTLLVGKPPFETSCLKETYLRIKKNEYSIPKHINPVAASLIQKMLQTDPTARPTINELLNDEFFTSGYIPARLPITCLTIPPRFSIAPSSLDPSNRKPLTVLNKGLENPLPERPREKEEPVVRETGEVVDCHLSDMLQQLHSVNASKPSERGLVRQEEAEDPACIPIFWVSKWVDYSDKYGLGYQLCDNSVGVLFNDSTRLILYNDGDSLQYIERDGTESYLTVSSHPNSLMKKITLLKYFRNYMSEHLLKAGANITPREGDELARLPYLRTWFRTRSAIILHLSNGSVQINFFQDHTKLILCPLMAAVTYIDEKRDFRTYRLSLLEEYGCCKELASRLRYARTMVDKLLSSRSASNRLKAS
T1 sequence (P53350 345-603): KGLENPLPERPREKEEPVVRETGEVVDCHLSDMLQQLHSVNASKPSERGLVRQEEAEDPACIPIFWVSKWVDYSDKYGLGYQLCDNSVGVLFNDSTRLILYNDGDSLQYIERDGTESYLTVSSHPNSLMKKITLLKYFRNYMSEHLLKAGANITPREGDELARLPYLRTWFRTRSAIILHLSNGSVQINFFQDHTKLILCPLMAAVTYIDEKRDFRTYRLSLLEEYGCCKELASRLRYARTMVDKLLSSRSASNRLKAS
Biotin-conjugated ^MBPPBD (immobilised ligand of BLI) (human), sequence (P53350 345-603): as above
T2 sequence (P53350 345-603): as above
^MBPPBD (6xHis-MBP-TEV-PLK1^345-603) (from UniProt P53350 345-603) (domain or fragment), sequence (P53350 345-603): as above

Row | Molecule | Kd [3] [nM] | koff [3] [s⁻¹] | kon [3] [M⁻¹ s⁻¹] | other results
1 | ^MBPCENP-U^84-114/pT98 (from UniProt Q71F23 84-114) (domain or fragment) | – | – | – | Kd [1]: 400 nM; koff [1]: 0.0028 s⁻¹; kon [1]: 7100 M⁻¹ s⁻¹
2 | ^MBPPBD (6xHis-MBP-TEV-PLK1^345-603) (from UniProt P53350 345-603) (domain or fragment) | – | – | – | Kd [2]: 380 nM
3 | LGENEKDEETYETFDPPLHS[pT]AIYAD (domain or fragment, human, UniProt Q71F23 58-83, looked up, also: N-terminal MBP fusion protein, CENP-U (PBIP1), human, residues 58-83 (Motif 1); also called PLK1-phosphorylated ^MBPCENP-U^58-83; phosphorylated Motif 1; source: E. coli BL21 (DE3), purified; not shown: MBP, N-terminal, kept) [^MBPCENP-U^58-83/pT78] | 2.5 | 0.00034 | 140000 | –
4 | ^MBPCENP-U^58-114 (6xHis-MBP-TEV-CENP-U^58-114), unphosphorylated (domain or fragment, human, UniProt Q71F23 58-114, looked up, The plasmids paragraph speaks of expression in insect cells, the purification paragraph of E. coli; source: E. coli BL21 (DE3), purified (HisTALON, Resource Q, SEC); not shown: MBP, N-terminal, kept) {6xHis-MBP-TEV}-LGENEKDEETYETFDPPLHSTAIYADEEEFSKHCGLSLSSTPPGKEAKRSSDTSGNE | – | – | – | binding result [4]: binds
5 | biotin-conjugated ^MBPCENP-U^58-114/pT78 (immobilised ligand of BLI) (domain or fragment, human, UniProt Q71F23 58-114, looked up, not fully specified (N-terminus); also: N-terminal MBP fusion protein, C-terminal PLPETG tag ligated by sortase A to Gly4-biotin, source: E. coli BL21 (DE3), purified; phosphorylated in vitro with PLK1; biotin-labelled with sortase A; not shown: MBP, N-terminal, kept; PLPETG peptide conjugated with Gly-Gly-Gly-Gly-Biotin, C-terminal, kept) LGENEKDEETYETFDPPLHS[pT]AIYADEEEFSKHCGLSLSSTPPGKEAKRSSDTSGNE | – | – | – | Kd [5]: 22 nM; koff [5]: 0.0033 s⁻¹; kon [5]: 150000 M⁻¹ s⁻¹; Kd [6]: 1.9 nM; koff [6]: 0.00052 s⁻¹; kon [6]: 280000 M⁻¹ s⁻¹
6 | EEEASKHCGLSLSS[pT]PPGKEAKRSSDTSGNE (domain or fragment, human, UniProt Q71F23 84-114, looked up, also: N-terminal MBP fusion protein, also called F87 to alanine mutant of Motif 2; source: E. coli BL21 (DE3), purified; phosphorylated in vitro with CDK1; not shown: MBP, N-terminal, kept) [^MBPCENP-U^84-114 F87A, phosphorylated with CDK1] | – | – | – | binding result [4]: binds
7 | {6xHis-MBP-TEV}-LGENEKDEETYETFDPPLHSTAIYAD (domain or fragment, human, UniProt Q71F23 58-83, looked up, CENP-U (PBIP1), human, residues 58-83 (Motif 1); also called Motif 1; unphosphorylated Motif 1; source: E. coli BL21 (DE3), purified (HisTALON, Resource Q, SEC); not shown: MBP, N-terminal, kept) [^MBPCENP-U^58-83 (6xHis-MBP-TEV-CENP-U^58-83), unphosphorylated] | 10000 | 0.00028 | 28 | –
8 | LGENEKDEETAETADPPLHS[pT]AIYAD (domain or fragment, human, UniProt Q71F23 58-83, looked up, also: N-terminal MBP fusion protein, CENP-U (PBIP1), human, residues 58-83 (Motif 1); source: E. coli BL21 (DE3), purified; not shown: MBP, N-terminal, kept) [^MBPCENP-U^58-83/Y68A/F71A/pT78] | 230 | 0.011 | 47000 | –
9 | LGENEKDEETYETADPPLHS[pT]AIYAD (domain or fragment, human, UniProt Q71F23 58-83, looked up, also: N-terminal MBP fusion protein, CENP-U (PBIP1), human, residues 58-83 (Motif 1); source: E. coli BL21 (DE3), purified; not shown: MBP, N-terminal, kept) [^MBPCENP-U^58-83/F71A/pT78] | 88 | 0.0077 | 87000 | –
10 | LGENEKDEETYETFDPPLHS[pT]AIYAD (domain or fragment) [singly phosphorylated pT78 peptide of CENP-U (ITC)] | – | – | – | Kd [7]: ~1.9 nM
11 | ^MBPCENP-U^58-114/pT78/F87A/T98V (domain or fragment, human, UniProt Q71F23 58-114, looked up, also: N-terminal MBP fusion protein, source: E. coli BL21 (DE3), purified; phosphorylated in vitro with only PLK1; not shown: MBP, N-terminal, kept) LGENEKDEETYETFDPPLHS[pT]AIYADEEEASKHCGLSLSSVPPGKEAKRSSDTSGNE | 7.2 | 0.001 | 140000 | –
